US20190315854A1 (BEIJING VDJBIO, published 2019)

B1: 52# (antibody, human IgG1, kappa, V domains shown)
VH: QVQLQESGPGLVRPSQTLSLTCTVSGYSITSDHAWSWVRQPPGRGLEWIGYISYSGITTYNPSLKSRVTMLRDTSKNQFSLRLSSVTAADTAVYYCARSLARTTAIDFWGQGSLVTVSS
VL: DIQMTQSPSSLSASVGDRVTITCRASQDISSYLNWYQQKPGKAPKLLIYYTSRLHSGVPSRFSGSGSGTDFTFTISSLQPEDIATYYCQQGNTLPYTFGQGTKVEIKR
notes: also called Sample # 52
B2: 214# (antibody, human IgG1, kappa, V domains shown)
VH: QVQLQESGPGLVRPSQTLSLTCTVSGYSITSDHAWSWVRQPPGRGLEWIGYISYSGITTYNPSLKSRVTMLRDTSKNQFSLRLSSVTAADTAVYYCARCLARMTAIDFWGQGSLVTVSS
VL: DIQMTQSPSSLSASVGDRVTITCRASQDISSYLNWYQQKPGKAPKLLIYYTSRLHSGVPSRFSGSGSGTDFTFTISSLQPEDIATYYCQQGNTLPYTFGQGTKVEIKR
B3: 221# (antibody, human IgG1, kappa, V domains shown)
VH: QVQLQESGPGLVRPSQTLSLTCTVSGYSITSDHAWSWVRQPPGRGLEWIGYISYSGMITYNPSLKSRVTMLRDTSKNQFSLRLSSVTAADTAVYYCARSLARTTAIDFWGQGSLVTVSS
VL: DIQMTQSPSSLSASVGDRVTITCRASQDISSYLNWYQQKPGKAPKLLIYYTSRLHSGVPSRFSGSGSGTDFTFTISSLQPEDIATYYCGQGNRLPYTFGQGTKVEIKR
B4: 218# (antibody, human IgG1, kappa, V domains shown)
VH: QVQLQESGPGLVRPSQTLSLTCTVSGYSITSDHAWSWVRQPPGRGLEWIGYISYSGMITYNPSLKSRVTMLRDTSKNQFSLRLSSVTAADTAVYYCARCLARMTAIDFWGQGSLVTVSS
VL: DIQMTQSPSSLSASVGDRVTITCRASQDISSYLNWYQQKPGKAPKLLIYYTSRLHSGVPSRFSGSGSGTDFTFTISSLQPEDIATYYCQQGNTLPYTFGQGTKVEIKR
B5: 69# (antibody, human IgG1, kappa, V domains shown)
VH: QVQLQESGPGLVRPSQTLSLTCTVSGYSITSDHAWSWVRQPPGRGLEWIGFISYSGMTTYNPSLKSRVTMLRDTSKNQFSLRLSSVTAADTAVYYCARCLARTTAIDFWGQGSLVTVSS
VL: DIQMTQSPSSLSASVGDRVTITCRASQDISSYLNWYQQKPGKAPKLLIYYTSRLHSGVPSRFSGSGSGTDFTFTISSLQPEDIATYYCQQGNTLPYTFGQGTKVEIKR
notes: also called Sample # 69
B6: 217# (antibody, human IgG1, kappa, V domains shown)
VH: QVQLQESGPGLVRPSQTLSLTCTVSGYSITSDHAWSWVRQPPGRGLEWIGYISYSGMITYNPSLKSRVTMLRDTSKNQFSLRLSSVTAADTAVYYCARCLARMTAMDYWGQGSLVTVSS
VL: DIQMTQSPSSLSASVGDRVTITCRASQDISSYLNWYQQKPGKAPKLLIYYTSRLHSGVPSRFSGSGSGTDFTFTISSLQPEDIATYYCQQGNTLPYTFGQGTKVEIKR
notes: also called Sample # 217
B7: 222# (antibody, human IgG1, kappa, V domains shown)
VH: QVQLQESGPGLVRPSQTLSLTCTVSGYSITSDHAWSWVRQPPGRGLEWIGYISYSGMITYNPSLKSRVTMLRDTSKNQFSLRLSSVTAADTAVYYCARCLARMTAMDYWGQGSLVTVSS
VL: DIQMTQSPSSLSASVGDRVTITCRASQDISSYLNWYQQKPGKAPKLLIYYTSRLHSGVPSRFSGSGSGTDFTFTISSLQPEDIATYYCGQGNRLPYTFGQGTKVEIKR
notes: also called Sample # 222
B8: 219# (antibody, human IgG1, kappa, V domains shown)
VH: QVQLQESGPGLVRPSQTLSLTCTVSGYSITSDHAWSWVRQPPGRGLEWIGYISYSGITTYNPSLKSRVTMLRDTSKNQFSLRLSSVTAADTAVYYCARCLARMTAIDFWGQGSLVTVSS
VL: DIQMTQSPSSLSASVGDRVTITCRASQDISSYLNWYQQKPGKAPKLLIYYTSRLHSGVPSRFSGSGSGTDFTFTISSLQPEDIATYYCGQGNRLPYTFGQGTKVEIKR
B9: 216# (antibody, human IgG1, kappa, V domains shown)
VH: QVQLQESGPGLVRPSQTLSLTCTVSGYSITSDHAWSWVRQPPGRGLEWIGYISYSGMITYNPSLKSRVTMLRDTSKNQFSLRLSSVTAADTAVYYCARSLARTTAIDFWGQGSLVTVSS
VL: DIQMTQSPSSLSASVGDRVTITCRASQDISSYLNWYQQKPGKAPKLLIYYTSRLHSGVPSRFSGSGSGTDFTFTISSLQPEDIATYYCQQGNTLPYTFGQGTKVEIKR
notes: also called Sample # 216
B10: 215# (antibody, human IgG1, kappa, V domains shown)
VH: QVQLQESGPGLVRPSQTLSLTCTVSGYSITSDHAWSWVRQPPGRGLEWIGYISYSGMITYNPSLKSRVTMLRDTSKNQFSLRLSSVTAADTAVYYCARSLARMTAMDYWGQGSLVTVSS
VL: DIQMTQSPSSLSASVGDRVTITCRASQDISSYLNWYQQKPGKAPKLLIYYTSRLHSGVPSRFSGSGSGTDFTFTISSLQPEDIATYYCQQGNTLPYTFGQGTKVEIKR
B11: 55# (antibody, human IgG1, kappa, V domains shown)
VH: QVQLQESGPGLVRPSQTLSLTCTVSGYSITSDHAWSWVRQPPGRGLEWIGFISYSGMITYNPSLKSRVTMLRDTSKNQFSLRLSSVTAADTAVYYCARCLARTTAMDYWGQGSLVTVSS
VL: DIQMTQSPSSLSASVGDRVTITCRASQDISSYLNWYQQKPGKAPKLLIYYTSRLHSGVPSRFSGSGSGTDFTFTISSLQPEDIATYYCQQGNTLPYTFGQGTKVEIKR
notes: also called Sample # 55
B12: 59# (antibody, human IgG1, kappa, V domains shown)
VH: QVQLQESGPGLVRPSQTLSLTCTVSGYSITSDHAWSWVRQPPGRGLEWIGFISYSGMTTYNPSLKSRVTMLRDTSKNQFSLRLSSVTAADTAVYYCARCLARTTAMDYWGQGSLVTVSS
VL: DIQMTQSPSSLSASVGDRVTITCRASQDISSYLNWYQQKPGKAPKLLIYYTSRLHSGVPSRFSGSGSGTDFTFTISSLQPEDIATYYCQQGNTLPYTFGQGTKVEIKR
notes: also called Sample # 59
B13: 220# (antibody, human IgG1, kappa, V domains shown)
VH: QVQLQESGPGLVRPSQTLSLTCTVSGYSITSDHAWSWVRQPPGRGLEWIGYISYSGMITYNPSLKSRVTMLRDTSKNQFSLRLSSVTAADTAVYYCARSLARMTAMDYWGQGSLVTVSS
VL: DIQMTQSPSSLSASVGDRVTITCRASQDISSYLNWYQQKPGKAPKLLIYYTSRLHSGVPSRFSGSGSGTDFTFTISSLQPEDIATYYCGQGNRLPYTFGQGTKVEIKR
notes: also called Sample # 220

target: T1, sIL-6R (soluble IL-6 receptor; SBH Sciences) (human, UniProt P08887 20-365); test: SPR (BIAcore 3000), antibody on chip, sIL-6R analyte, 25 C
T1 construct: also called human IL-6R
T1 sequence: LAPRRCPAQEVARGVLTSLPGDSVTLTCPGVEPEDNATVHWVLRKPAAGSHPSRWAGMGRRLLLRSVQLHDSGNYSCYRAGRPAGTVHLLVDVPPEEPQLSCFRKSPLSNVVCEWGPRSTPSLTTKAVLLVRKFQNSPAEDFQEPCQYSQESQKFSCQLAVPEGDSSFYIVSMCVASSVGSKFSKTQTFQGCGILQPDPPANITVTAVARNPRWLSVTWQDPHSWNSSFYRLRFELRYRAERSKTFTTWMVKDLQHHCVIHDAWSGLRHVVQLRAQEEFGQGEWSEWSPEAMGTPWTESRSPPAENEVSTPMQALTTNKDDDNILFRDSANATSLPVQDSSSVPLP
Method: All SPR measurements were performed on a BIAcore 3000 instrument (GE Biosciences, Piscataway, N.J.). BIAcore Software-BIAcore 3000 Control Software V3.2 was used for the operation and control of the BIAcore 3000 instrument. BiaEvaluation Software V4.1 was used for the analysis of SPR data from the BIAcore 3000 instrument and data was plotted using Graph Pad Prism Software Version 5. […] The indicated antibodies were used as the ligand for the construction of the reference channel of the chip. […] Each sample was injected for 3 min at a flow rate of 30 μL/min to allow for binding to chip-bound antibody. Next, binding buffer without analyte was sent over the chip at the same flow rate to allow for dissociation of bound analyte. After 500s, remaining bound analyte was removed by injecting regeneration solution (1M Formic acid). Data was analyzed by using the Kinetics Wizard and the manual fitting programs that are both included with the BiaEvaluation Software V4.1.

In order of falling Kd:
1. B1  1.86 nM
2. B9  1.83 nM
3. B10  1.03 nM
4. B3  0.663 nM
5. B4  0.621 nM
6. B6  0.581 nM
7. B8  0.491 nM
8. B13  0.483 nM
9. B11  0.387 nM
10. B2  0.369 nM
11. B5  0.286 nM
12. B7  0.286 nM
13. B12  0.283 nM

In order of falling “Relative Affinity” value:
1. B12  11.2 fold vs 25 (Tocilizumab)
2. B5  11 fold vs 25 (Tocilizumab)
3. B7  11 fold vs 25 (Tocilizumab)
4. B2  8.7 fold vs 25 (Tocilizumab)
5. B11  8.2 fold vs 25 (Tocilizumab)
6. B13  6.5 fold vs 25 (Tocilizumab)
7. B8  6.4 fold vs 25 (Tocilizumab)
8. B6  5.4 fold vs 25 (Tocilizumab)
9. B4  5.1 fold vs 25 (Tocilizumab)
10. B3  4.8 fold vs 25 (Tocilizumab)
11. B10  3.1 fold vs 25 (Tocilizumab)
12. B1  1.7 fold vs 25 (Tocilizumab)
13. B9  1.7 fold vs 25 (Tocilizumab)

In order of rising koff:
1. B7  3.66e-05 s⁻¹
2. B5  4.14e-05 s⁻¹
3. B2  4.69e-05 s⁻¹
4. B12  4.86e-05 s⁻¹
5. B8  5.96e-05 s⁻¹
6. B13  6.34e-05 s⁻¹
7. B4  6.63e-05 s⁻¹
8. B11  7.24e-05 s⁻¹
9. B3  9.01e-05 s⁻¹
10. B6  0.000109 s⁻¹
11. B10  0.000161 s⁻¹
12. B1  0.000199 s⁻¹
13. B9  0.000266 s⁻¹

In order of rising kon:
1. B1  107000 M⁻¹ s⁻¹
2. B4  107000 M⁻¹ s⁻¹
3. B8  121000 M⁻¹ s⁻¹
4. B2  127000 M⁻¹ s⁻¹
5. B7  128000 M⁻¹ s⁻¹
6. B13  131000 M⁻¹ s⁻¹
7. B3  136000 M⁻¹ s⁻¹
8. B5  145000 M⁻¹ s⁻¹
9. B9  145000 M⁻¹ s⁻¹
10. B10  157000 M⁻¹ s⁻¹
11. B12  172000 M⁻¹ s⁻¹
12. B11  187000 M⁻¹ s⁻¹
13. B6  188000 M⁻¹ s⁻¹
